Patent US20150203577A1 (Chugai, published 2015)
Residue numbers refer to the chain shown, from its start. Names may count otherwise.

T1: mouse FcγRIII extracellular domain with C-terminal His tag (mouse, UniProt P08508 31-215)
T1 construct: Made on the basis of NCBI NP-034318.2; also called mFcγRIII; mFcgRIII
T1 chain: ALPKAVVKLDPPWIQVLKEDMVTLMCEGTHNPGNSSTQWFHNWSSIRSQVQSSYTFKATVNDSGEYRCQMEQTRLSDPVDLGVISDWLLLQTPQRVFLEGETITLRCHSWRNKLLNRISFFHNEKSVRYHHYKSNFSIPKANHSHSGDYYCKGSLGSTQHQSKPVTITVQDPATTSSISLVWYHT

T2: mouse FcγRII extracellular domain with C-terminal His tag (mouse, UniProt P08101 30-210)
T2 construct: Made on the basis of NCBI NP-034317.1; also called mFcγRII; mFcgRII
T2 sequence: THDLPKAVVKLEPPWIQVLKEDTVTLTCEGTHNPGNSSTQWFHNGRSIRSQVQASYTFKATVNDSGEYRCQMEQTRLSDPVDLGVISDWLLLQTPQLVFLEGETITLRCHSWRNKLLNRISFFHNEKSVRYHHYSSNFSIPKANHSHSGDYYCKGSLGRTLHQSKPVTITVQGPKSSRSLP

T3: mouse FcγRII extracellular domain, C-terminal His tag (mouse, UniProt P08101 30-210)
T3 construct: Whole entry named; also called mFcγRII; mFcgRII
T3 sequence: T2 sequence

T4: mouse FcγRIII extracellular domain, C-terminal His tag (mouse, UniProt P08508 31-215)
T4 construct: Whole entry named; also called mFcγRIII; mFcgRIII
T4 chain: T1 chain

B1: H237-mIgG1/MRAL-k0 (antibody)
heavy: QVQLQESGPGLVKPSETLSLTCAVSGHSISHDHAWSWVRQPPGEGLEWIGFISYSGITNYNPSLQGRVTISRDNSKNTLYLQMNSLRAEDTAVYYCARSLARTTAMDYWGEGTLVTVSSAKTTPPSVYPLAPGSAAQTNSMVTLGCLVKGYFPEPVTVTWNSGSLSSGVHTFPAVLQSDLYTLSSSVTVPSSTWPSETVTCNVAHPASSTKVDKKIVPRDCGCKPCICTVPEVSSVFIFPPKPKDVLTITLTPKVTCVVVDISKDDPEVQFSWFVDDVEVHTAQTQPREEQFNSTFRSVSELPIMHQDWLNGKEFKCRVNSAAFPAPIEKTISKTKGRPKAPQVYTIPPPKEQMAKDKVSLTCMITDFFPEDITVEWQWNGQPAENYKNTQPIMDTDGSYFVYSKLNVQKSNWEAGNTFTCSVLHEGLHNHHTEKSLSHSPGK
light: not shown
notes: copies: 2 + 2
B2: H237-MB473/MRAL-k0 (antibody, mouse IgG1, kappa)
heavy: B1 heavy with T229E, V230P, P231A, S234E, S235E
light: not shown
notes: copies: 2 + 2
B3: H237-MB476/MRAL-k0 (antibody, mouse IgG1, kappa)
heavy: B1 heavy with T229Q, V230P, P231N, S234E, S235E
light: not shown
notes: mIgG1 with T230Q/V231P/P232N/S238E/S239E (EU); copies: 2 + 2
B4: H237-MB486/MRAL-k0 (antibody, mouse IgG1, kappa)
heavy: B1 heavy with T229E, V230P, P231A, S234E
light: not shown
notes: copies: 2 + 2
B5: H237-MB474/MRAL-k0 (antibody, mouse IgG1, kappa)
heavy: B1 heavy with T229I, V230P, P231A, S234E, S235E
light: not shown
notes: copies: 2 + 2
B6: H237-MB475/MRAL-k0 (antibody, mouse IgG1, kappa)
heavy: B1 heavy with T229E, V230P, P231N, S234E, S235E
light: not shown
notes: copies: 2 + 2
B7: H237-MB476/MRAL-k0 (antibody, mouse IgG1, kappa)
heavy: B1 heavy with T229Q, V230P, P231N, S234E, S235E
light: not shown
notes: copies: 2 + 2
B8: H237-MB532/MRAL-k0 (antibody, mouse IgG1, kappa)
heavy: B1 heavy with T229Q, V230P, P231N, S234E, S235E, A322D, K330R
light: not shown
notes: copies: 2 + 2
B9: H237-MB536/MRAL-k0 (antibody, mouse IgG1, kappa)
heavy: B1 heavy with T229Q, V230P, P231N, S234E, S235E, N320D, A322D, K330R
light: not shown
notes: copies: 2 + 2
B10: H237-MB535/MRAL-k0 (antibody, mouse IgG1, kappa)
heavy: B1 heavy with T229Q, V230P, P231N, S234E, S235E, S294L, A322D, K330R
light: not shown
notes: copies: 2 + 2
B11: H237-MB542/MRAL-k0 (antibody, mouse IgG1, kappa)
heavy: B1 heavy with T229E, V230P, P231N, S234E, S235M, N320D, A322D
light: not shown
notes: copies: 2 + 2
B12: H237-MB529/MRAL-k0 (antibody, mouse IgG1, kappa)
heavy: B1 heavy with T229Q, V230P, P231N, S234E, S235E, S294L, K330R
light: not shown
notes: copies: 2 + 2
B13: H237-MB527/MRAL-k0 (antibody, mouse IgG1, kappa)
heavy: B1 heavy with T229Q, V230P, P231N, S234E, S235E, S294L, N320D
light: not shown
notes: copies: 2 + 2
B14: H237-MB528/MRAL-k0 (antibody, mouse IgG1, kappa)
heavy: B1 heavy with T229Q, V230P, P231N, S234E, S235E, S294L, A322D
light: not shown
notes: copies: 2 + 2
B15: H237-MB548/MRAL-k0 (antibody, mouse IgG1, kappa)
heavy: B1 heavy with T229E, V230P, P231N, S234E, S235M, N320D, A322D, K330R
light: not shown
notes: copies: 2 + 2
B16: H237-MB533/MRAL-k0 (antibody, mouse IgG1, kappa)
heavy: B1 heavy with T229Q, V230P, P231N, S234E, S235E, S294L, N320D, A322D
light: not shown
notes: copies: 2 + 2
B17: H237-MB537/MRAL-k0 (antibody, mouse IgG1, kappa)
heavy: B1 heavy with T229Q, V230P, P231N, S234E, S235E, S294L, N320D, A322D, K330R
light: not shown
notes: copies: 2 + 2
B18: H237-MB530/MRAL-k0 (antibody, mouse IgG1, kappa)
heavy: B1 heavy with T229Q, V230P, P231N, S234E, S235E, N320D, A322D
light: not shown
notes: copies: 2 + 2
B19: H237-MB544/MRAL-k0 (antibody, mouse IgG1, kappa)
heavy: B1 heavy with T229E, V230P, P231N, S234E, S235M, A322D, K330R
light: not shown
notes: copies: 2 + 2
B20: H237-MB531/MRAL-k0 (antibody, mouse IgG1, kappa)
heavy: B1 heavy with T229Q, V230P, P231N, S234E, S235E, N320D, K330R
light: not shown
notes: copies: 2 + 2
B21: H237-MB549/MRAL-k0 (antibody, mouse IgG1, kappa)
heavy: B1 heavy with T229E, V230P, P231N, S234E, S235M, S294L, N320D, A322D, K330R
light: not shown
notes: copies: 2 + 2
B22: H237-MB534/MRAL-k0 (antibody, mouse IgG1, kappa)
heavy: B1 heavy with T229Q, V230P, P231N, S234E, S235E, S294L, N320D, K330R
light: not shown
notes: copies: 2 + 2
B23: H237-MB526/MRAL-k0 (antibody, mouse IgG1, kappa)
heavy: B1 heavy with T229Q, V230P, P231N, S234E, S235E, S294L
light: not shown
notes: copies: 2 + 2
B24: H237-MB594/MRAL-k0 (antibody, mouse IgG1, kappa)
heavy: B1 heavy with T229E, V233E, S234E
light: not shown
notes: copies: 2 + 2
B25: H237-MB703/MRAL-k0 (antibody, mouse IgG1, kappa)
heavy: B1 heavy with T229E, V230A, S234E, S235N
light: not shown
notes: copies: 2 + 2

Target: T1, mouse FcγRIII extracellular domain with …
Test: SPR Biacore T200

Kd [nM]	Binder
282	B1

Target: T2, mouse FcγRII extracellular domain with …
Test: SPR Biacore T200
Procedure: (§1) Each altered antibody was analyzed for its interaction with each Fcγ receptor prepared above using Biacore T100 (GE Healthcare Japan Corp.), Biacore T200 (GE Healthcare Japan Corp.), Biacore A100, or Biacore 4000. The running buffer used was HBS-EP+ (GE Healthcare Japan Corp.). The assay temperature was set to 25° C. The sensor chips used were chips prepared by immobilizing Protein L (ACTIGEN or BioVision) onto Series S Sensor Chip CM5 (GE Healthcare Japan Corp.) or Series S Sensor Chip CM4 (GE Healthcare Japan Corp.) by the amine coupling method.
(§2) In order to calculate the KD value of each altered antibody for FcγR, kinetic analysis was conducted according to the following method: first, the antibody of interest was captured onto any of these chips and allowed to interact with mFcγR diluted with a running buffer. For the obtained sensorgram, the assay results were globally fit into the 1:1 Langmuir binding model using Biacore Evaluation Software to calculate an association rate constant ka (L/mol/s) and a dissociation rate constant kd (1/s). From these values, the dissociation constant KD (mol/L) was calculated.

relative mFcγRII-binding activity (mIgG1 = 1)	Binder
57.6	B2
246	B3
28.1	B4
42.9	B5
214	B6

Target: T1, mouse FcγRIII extracellular domain with …
Test: SPR Biacore T200
Remark: another data set of the same source
Procedure: as §1, §2

relative mFcγRIII-binding activity (mIgG1 = 1)	Binder
1.4	B2
3.4	B3
1.1	B4
1.1	B5
3.5	B6

Target: T2, mouse FcγRII extracellular domain with …
Test: SPR Biacore T200
Remark: another data set of the same source
Procedure: as §1, §2

Kd [nM]	Binder
3.65	B2
0.854	B3
7.47	B4
4.89	B5
0.979	B6

Target: T1, mouse FcγRIII extracellular domain with …
Test: SPR Biacore T200
Remark: another data set of the same source
Procedure: as §1, §2

Kd [nM]	Binder
282	B1
196	B2
84	B3
258	B4
247	B5
81.4	B6

Target: T3, mouse FcγRII extracellular domain, …
Test: SPR (Biacore T200), 1:1 fit
Procedure: as §1, §2

Kd [nM]	Binder
0.804	B7
0.639	B8
0.53	B9
0.498	B10
0.547	B11
0.745	B12
0.768	B13
0.56	B14
0.589	B15
0.534	B16
0.412	B17
0.337	B18
0.76	B19
0.918	B20
1	B21
0.499	B22
0.904	B23

Target: T4, mouse FcγRIII extracellular domain, …
Test: SPR (Biacore T200), 1:1 fit
Procedure: as §1, §2

Kd [nM]	Binder
107	B7
45.4	B8
36.8	B9
33.2	B10
83.3	B11
47.6	B12
51	B13
19.3	B14
71.7	B15
39	B16
31.7	B17
35.1	B18
87.2	B19
85	B20
52.1	B21
8.34	B22
33	B23

Target: T3, mouse FcγRII extracellular domain, …
Test: SPR (Biacore T200); KD of H237-mIgG1/MRAL-k0 / KD of variant

relative mFcγRII-binding activity (mIgG1 = 1) [fold]	Binder
1.85	B24

Target: T4, mouse FcγRIII extracellular domain, …
Test: as above

relative mFcγRIII-binding activity (mIgG1 = 1) [fold]	Binder
0.1	B24

Target: T3, mouse FcγRII extracellular domain, …
Test: as above
Remark: another data set of the same source
Source text: (§3) The antibody H chain variable region used was the variable region H237 (SEQ ID NO: 1) of the H chain VH3-IgG1 of the anti-IL-6 receptor antibody Fv4-IgG1 described in WO2009/125825. The antibody L chain commonly used was the L chain MRAL-k0 (SEQ ID NO: 2) of the anti-IL-6 receptor antibody tocilizumab. The aforementioned 7 variants were used as templates to substitute the amino acids at the alteration sites by the amino acids before the alteration. These variants were expressed and purified by the method of Reference Example 1 and evaluated for their binding to mFcγRII and mFcγRIII by the method of Reference Example 2 using Biacore T200.
as §1

relative mFcγRII-binding activity (mIgG1 = 1) [fold]	Binder
0.943	B25
1.3	B24

Target: T4, mouse FcγRIII extracellular domain, …
Test: as above
Remark: another data set of the same source
Source text: as §3, §1

relative mFcγRIII-binding activity (mIgG1 = 1) [fold]	Binder
0.104	B25
0.057	B24

Target: T4, mouse FcγRIII extracellular domain, …
Test: as above
Remark: another data set of the same source
Procedure: as §1, §2

relative mFcγRIII-binding activity (mIgG1 = 1) [fold]	Binder
2.6	B7
6.2	B8
7.7	B9
8.5	B10
3.4	B11
5.9	B12
5.5	B13
14.6	B14
3.9	B15
7.2	B16
8.9	B17
8	B18
3.2	B19
3.3	B20
5.4	B21
33.8	B22
8.5	B23
